As a reminder, the Kd is the concentration at which binding is half-saturated. A low value points to a tighter complex. By koff is commonly meant the rate constant with which the complex falls apart. As a reminder, the kon is the rate constant with which the complex forms. A lower kon goes with slower complex formation.

Where a chain is given by its changes, count along the chain named. Names may count otherwise.

Here are results for eight molecules from patent publication US20260234236A1 (INTERVET, published 2026).

The chains are these.
T1: Canine IL-4 with C-terminal Avi-HIS tag (canine, biotin label when loaded on SA biosensors (Example 4); site not stated)
T1 construct: also called cIL-4; biotinylated avitag-cIL-4
T1 chain: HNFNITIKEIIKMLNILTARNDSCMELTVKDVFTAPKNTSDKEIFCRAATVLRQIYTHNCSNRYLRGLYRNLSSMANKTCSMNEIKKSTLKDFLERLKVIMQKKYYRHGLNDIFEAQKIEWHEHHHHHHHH

T2: Recombinant canine IL-4 (R&D Systems, Catalog: 752-CL/CF) (canine, UniProt O77762 25-132)
T2 sequence (looked up): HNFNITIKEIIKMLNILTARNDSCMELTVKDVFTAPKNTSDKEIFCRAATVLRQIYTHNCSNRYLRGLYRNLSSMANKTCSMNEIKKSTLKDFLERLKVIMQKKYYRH

T3: Canine IL-13 with C-terminal Avi-HIS tag (canine, biotin label when loaded on SA biosensors (Example 4); site not stated)
T3 construct: also called cIL-13; biotinylated avitag-cIL13
T3 chain: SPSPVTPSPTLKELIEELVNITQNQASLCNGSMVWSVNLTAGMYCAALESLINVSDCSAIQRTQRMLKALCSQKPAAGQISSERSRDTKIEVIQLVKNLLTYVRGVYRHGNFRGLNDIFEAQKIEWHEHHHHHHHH

T4: Recombinant canine IL-13 (R&D Systems, Catalog: 5894-CL/CF) (canine, UniProt Q9N0W9 19-131, limits assumed)
T4 sequence (looked up): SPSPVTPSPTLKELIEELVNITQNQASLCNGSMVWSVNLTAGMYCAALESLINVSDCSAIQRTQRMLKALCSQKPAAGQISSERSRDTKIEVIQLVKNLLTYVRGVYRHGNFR

B1: IL4-P4A-1F10VH-cIgGB/IL4-P4A-1F10VL-cCL (antibody, V domains shown)
VH: EVQLVQSGGDLVKPAGSLRLSCVASGFTFNSYAMSWVRQAPGKGLQWVAGINSGGSTTTYADAVKGRFTISRDNAKNTLYLQMNSLRAEDTAVYYCAKDQNSYYPSDTFEYWGQGTLVTVSS
VL: QTVVTQEPSLSVSPGGTVTLTCGLSSGSVSTGNYPGWYQQTQGRAPRSIIYDTNSRPSGVPDRFSGSISGNKAVLTITGAQPEDEADYYCSLYTGIAYTDVVFGGGTHLTVLG
notes: Full-length canine IgG-B; also called IL4-1F10; IL4 1F10
B2: IL4-P4A-1A10VH-cIgGB/IL4-P4-1A10VL-cCL (antibody, V domains shown)
VH: EVQLVESGGDLVKPGGSLRLSCVASGFTFSDYDMTWVRQAPGKGLQWVADINNGGSSTTYADAVKGRFTISRDNAKNTLYLQMNSLRAEDTAMYYCAKEGDNTWLSFDSWGQGTLVTVSS
VL: QSVLNQLPSVSGSLGQKVTIRCSGNTDNIGMVGAAWYRQVPGEAPKLLLYSDGNRPSGVPDRFSGSDSGRSATLTITGLQPEDEADYYCQSLDPTVPGNYLFGSGTQLTILG
notes: also called IL4-P4-1A10VH-cIgGB/IL4-P4-1A10VL-cCL
B3: IL4-P4A-2D11VH-cIgGB/IL4-P4A-2D11VL-cCL (antibody, V domains shown)
VH: EEQLVEFGGDLVKPGESLRLSCVASGFTFNKYDMSWVRQAPGKGLQWVATVADDESFAYYTDSVKGRFTISRDNAKNTLYLQMNSLRAEDTAMYYCVGKTGSYWDIDFDLWGPGTLVTISS
VL: QAVLTQPPSVSAALGQRVTISCSGSTDNVGTVGASWYQHLPGRAPKLLVYIVGDRPSGVPDRFSGSKSGTSATLTITGLQAEDEADYYCSSWDDSLRGIVFGGGTHLTVLG
notes: Full-length canine IgG-B; also called IL4-2D11
B4: IL13-P3-1G5VH-cIgGB/IL13-P3-1G5VL-cCL (antibody, V domains shown)
VH: EVQLVQSGGDLVKPGGTLRLSCVASGFTFSSYDMSWVRQSPGKGLQWVAAIWNDGSNTEYADAVKGRFTVSRDNAKNTVYLEMNSLRAEDTAMYYCVKEGPSYGYFDYWGQGTLVTVSS
VL: SYELTQPPSVSVSLGQTATISCSGESLSKYYAQWFQQKAGQAPVLVIYQDTERPSGIPDRFSGSSSGNTHTLTISGARAEDEADYYCESAISPDTYVFGSGTQLTILG
notes: Full-length canine IgG-B; also called IL13-1G5
B5: IL13-P3-05VH-cIgGB/IL13-P3-05VL-cCL (antibody, V domains shown)
VH: EVQLVESGGDSVRPGGSLRLSCVASGFTFSRYNMGWVRQAPGKGLQWVAWIYDGGSRTSYADAVKGRFTISRDNAKDTLYLQMDDLRVDDTAVYYCARDPSSWGSLFDYWGQGTLVTVSS
VL: SYVLTQPPSVTVPLRQTARISCGGDNIRSKNVHWYQQKPGQAPVLIIYNDSNRPTGIPERFSGSNSGNMATLTIRGALAEDEADYYCQVWANDGYVFGSGTQLTVLG
notes: Full-length canine IgG-B
B6: IL13-P3-05VH-cIgGB/IL13-P3-05VLm-cCL (antibody, V domains shown)
VH: B5 VH
VL: B5 VL with N49Q
notes: Full-length canine IgG-B. The light chain has N replaced by Q in CDRL2 to remove a potential glycosylation site; also called IL13-P3-05Lm; IL-13 P3-05Lm
B7: IL13-P3-1B4VH-cIgGB/IL13-P3-1B4VL-cCL (antibody)
heavy: ELTLQESGPGLVKPSQTLSLTCVVSGGSVTSNYYWNWIRQRPGRGLEWMGYWTGSTNYNPAFQGRISITADTAKNHFSLQLTSMTTEDTAVYYCARASTWLHGMDFWGHGTSLFVSSASTTAPSVFPLAPSCGSTSGSTVALACLVSGYFPEPVTVSWNSGSLTSGVHTFPSVLQSSGLYSLSSMVTVPSSRWPSETFTCNVAHPASKTKVDKPVPKRENGRVPRPPDCPKCPAPEMLGGPSVFIFPPKPKDTLLIARTPEVTCVVVDLDPEDPEVQISWFVDGKQMQTAKTQPREEQFNGTYRVVSVLPIGHQDWLKGKQFTCKVNNKALPSPIERTISKARGQAHQPSVYVLPPSREELSKNTVSLTCLIKDFFPPDIDVEWQSNGQQEPESKYRTTPPQLDEDGSYFLYSKLSVDKSRWQRGDTFICAVMHEALHNHYTQESLSHSPGK
light: SYVLTQSPSVSGSLGQTVTISCSGTTIGVVGANWYQQLPGKAPKLLVHSDGGRLSGVPDRFSGSESGNSAALTITGLQAEDEADYYCQSFDTTLGYVFGSGTQLTILGQPKASPSVTLFPPSSEELGANKATLVCLISDFYPSGVTVAWKADGSPVTQGVETTKPSKQSNNKYAASSYLSLTPDKWKSHSSFSCLVTHEGSTVEKKVAPAECS
notes: Full-length canine IgG-B; also called IL13-1B4
B8: IL13-P3-1C6VH-cIgGB/IL13-P3-1C6VL-cCL (antibody, V domains shown)
VH: ELTLQESGPGLVKPSQTLSLTCVVSGGSVTNTYEWDWIRQRPGRGLEWMGSWTDNTWYNPAFQGRISITADTAKNQLSLQLSSVTTGDTAVYFCARWTKRWGYDYWGQGTLVTVSS
VL: QSVLTQPASVSGSLGQRVTISCSGRTNNIGYFGANWYQQVPGKAPKLLVSSYGNRPSGVPDRFSASNSANSATLTITGLQAEDEADYYCQSFDTTLGAVVFGGGTQLTVLG

The target in the first assay is T1, Canine IL-4 with C-terminal Avi-HIS tag. Put plainly: BLI (OCTET HTX); biotin-mAb on SA biosensors, cIL-4 in solution; 1:1 model. The protocol:
(§1) Selected scFv specific to cIL-4 or cIL-13 were converted into full length canine IgG mAbs and tested for binding by OCTET. All kinetics measurements were performed by OCTET HTX using SA biosensors and Data Acquisition 12.0 software. First, each biotin-labeled full-length anti-canine IL-4 or anti-canine IL-13 mAb, at a concentration of 5 μg/mL, were loaded onto the pre-rehydrated SA biosensors until binding signal change ascended to a […] threshold for all channels from the step start or for a maximum of 1200s to insure equal loading density. Second, the biosensors were placed into OCTET Kinetics Buffer (PBS+0.02% Tween20, 0.1% BSA) for the blocking phase for 60s. Third, for the association phase, full-length anti-canine IL-4 mAb or anti-canine IL-13 mAb loaded biosensors were placed into 2-fold serial dilutions from 1000 nM down to 15.6 nM of cIL-4 or cIL-13, respectively, in OCTET Kinetics Buffer for 60s. The last well was buffer alone and that sensor was used for reference sensor subtraction. Finally, the biosensors were placed into OCTET Kinetics Buffer for the dissociation phase for 180s. Analysis was performed using Data Analysis 12.0 software and curves were fitted using a 1:1 binding model.
Regarding B1, binding was characterised by a dissociation constant (Kd) of 0.305 nM, the koff is 0.000114 s⁻¹ and the kon worked out at 374000 M⁻¹ s⁻¹.

B2 yielded a Kd of 0.846 nM, a koff of 0.00105 s⁻¹ and a kon of 1.24e+06 M⁻¹ s⁻¹.

A further assay concerns the target T2, Recombinant canine IL-4 (R&D Systems, …). Put plainly: cell-based or functional assay.
B1: the “IL-4 IC50 (nM); inhibition of canine IL-4 mediated STAT6 phosphorylation in DH82 cells” value (“IL-4 IC50 (nM); inhibition” for short) was found to be 0.58 nM.

With B2, the “IL-4 IC50 (nM); inhibition” value came to 3.15 nM.

For the molecule B3, the “IL-4 IC50 (nM); inhibition” value was found to be 0.91 nM.

The next assay concerns the target T3, Canine IL-13 with C-terminal Avi-HIS tag. Put plainly: BLI (OCTET HTX); biotin-mAb on SA biosensors, cIL-13 in solution; 1:1 model. The protocol: as §1
Turning to B4, the affinity, expressed as Kd, was 1.19 nM; the koff amounted to 0.0018 s⁻¹; the kon came to 1.3e+06 M⁻¹ s⁻¹.

Turning to B5, the Kd amounted to 5.58 nM, the koff worked out at 0.00148 s⁻¹ and the kon stood at 252000 M⁻¹ s⁻¹.

B6 showed a Kd of 5.45 nM, a dissociation rate constant (koff) of 0.000793 s⁻¹ and a kon of 162000 M⁻¹ s⁻¹.

Regarding B7, binding was characterised by a dissociation constant (Kd) of 8.12 nM, the koff was 0.00208 s⁻¹ and the kon is 256000 M⁻¹ s⁻¹.

For another assay, the target named is T1, Canine IL-4 with C-terminal Avi-HIS tag. Put plainly: DSS cross-linking and High-Mass MALDI MS. The source says:
In order to identify potentially discontinuous epitopes recognized by the antibodies of the present invention to their respective antigens, e.g., canine IL-4 or canine IL-13, a method was employed that was based on chemical crosslinking using disuccinimidyl suberate (DSS) and mass spectrometry detection (XL-MS) at CovalX Inc. (CovalX® Instrument Incorporated; Covalx.com). With this method, the binding of a canine antibody to its corresponding canine antigen in the presence of a mass-labeled chemical crosslinker is performed. The cross-linking experiments allow the direct analysis of non-covalent interaction by High-Mass MALDI (matrix assisted laser desorption ionization) mass spectrometry. […] The covalent binding generated allows the interacting species to survive the sample preparation process and the MALDI ionization. A High-Mass detection system allows characterizing the interaction in the High-Mass range.
The presence of the antigen-antibody complex were confirmed using High Mass MALDI detection. […]
Turning to B3, the binding result is listed as “binds”.

The target in a further assay is T4, Recombinant canine IL-13 (R&D Systems, …). Put plainly: cell-based or functional assay.
With B4, the “IL-13 IC50 (nM); inhibition of canine IL-13 mediated STAT6 phosphorylation in DH82 cells” value (shortened to “IL-13 IC50 (nM); inhibition”) came to 94.1 nM.

Regarding B5, the “IL-13 IC50 (nM); inhibition” value amounted to 13.1 nM.

Take B6: the “IL-13 IC50 (nM); inhibition” value is 4.44 nM.

As for B7, the “IL-13 IC50 (nM); inhibition” value came out at 97.5 nM.

On to B8, for which the “IL-13 IC50 (nM); inhibition” value stood at 47.9 nM.
